The record followed here is patent publication US20240343803A1 (SHANDONG SIMCERE BIOPHARMACEUTICAL, published 2024).

Test [1] deals with T1, human PVRIG on FlpinCHO-PVRIG cells (human, UniProt Q6DKI7 41-326).
T1 construct: whole, on cells
T1 sequence (looked up): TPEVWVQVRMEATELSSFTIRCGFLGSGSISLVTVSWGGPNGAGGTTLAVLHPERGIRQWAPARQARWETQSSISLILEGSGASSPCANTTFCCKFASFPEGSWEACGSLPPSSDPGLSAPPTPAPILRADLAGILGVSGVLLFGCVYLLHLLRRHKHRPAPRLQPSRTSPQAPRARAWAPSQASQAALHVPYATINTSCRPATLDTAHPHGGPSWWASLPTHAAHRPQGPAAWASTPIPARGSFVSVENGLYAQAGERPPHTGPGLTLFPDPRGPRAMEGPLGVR
As to the kind of experiment: FACS, FlpinCHO-PVRIG cells. In general terms: In flow cytometry, cells or beads pass a laser one at a time.

Test [2] deals with T2, human PVRIG-his (AcroBiosystems, Cat NO. PVG-H52H4) (human, UniProt Q6DKI7 41-171, limits assumed).
T2 construct: also called human PVRIG protein
T2 sequence (looked up): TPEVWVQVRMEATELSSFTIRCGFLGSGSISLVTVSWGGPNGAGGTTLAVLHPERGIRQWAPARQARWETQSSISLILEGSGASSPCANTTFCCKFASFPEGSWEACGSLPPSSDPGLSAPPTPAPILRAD
In words: SPR (BIAcore), antibody captured on Protein A chip, human PVRIG-His analyte. Background: Surface plasmon resonance follows binding to a sensor surface in real time, without labels.

Test [3] deals with T2, human PVRIG-his (AcroBiosystems, Cat …). The test is described as above. The method, boiled down: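 Anti-PVRIG antibody captured on a Protein A chip to about 50 RU Rmax, then human PVRIG-His injected at graded concentrations in multi-cycle kinetics (association and dissociation). Chip regenerated with glycine pH 1.5 between cycles; affinity derived from the fitted kinetics.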
The source holds these as a separate data set.

Where two headings read alike, the source gives them in different places.

B1: PVRIG-A105 (Fc fusion)
chain: EVQLVESGGGLVQAGGSLRLSCAASGRTFDRHTMTWFRQAPGKEREFVATASRIPGDTYYSHSVKGRFTISRDNAKNTVYLQLNNLKPEDTAVYYCAATSAYCSEVDCYEKGSWYDNWGQGIQVTVSS
notes: heavy chain antibody VHH-hinge-CH2-CH3, human IgG1 constant part; not shown: human IgG1 hinge-CH2-CH3
B1: in test [1], the “AUC % to COM701-hIgG1” value was found to be 124%, the “AUC % to SRF813-hIgG1” value amounted to 186% and the “AUC % to parental Ab” value was 100%. In test [2], the Kd was found to be 0.675 nM, the koff stood at 0.000486 s⁻¹ and the kon was found to be 721000 M⁻¹ s⁻¹. In test [3], this molecule yielded a Kd of 0.841 nM, a koff of 0.000443 s⁻¹ and a kon of 527000 M⁻¹ s⁻¹.

B2: PVRIG-A118 (Fc fusion)
chain: QVQLVESGGGLVQAGGSLRLSCAASETYFDLYVMGWYRQAPGKDRELVATITYTGSIKIVDSVKDRFTISRGDAKNTVSLQMSSLKPEDTAVYFCNADPSGLGRKVYWGQGTQVTVSS
notes: as for B1
Regarding B2, in test [1], the “AUC % to COM701-hIgG1” value was 136%, the “AUC % to SRF813-hIgG1” value worked out at 191% and the “AUC % to parental Ab” value was 100%. In test [2], this molecule came in with a Kd of 0.483 nM, an off-rate (koff) of 0.00102 s⁻¹ and an association rate constant (kon) of 2.12e+06 M⁻¹ s⁻¹. Besides, in test [3], the Kd worked out at 0.48 nM, the off-rate constant (koff) worked out at 0.00114 s⁻¹ and the kon amounted to 2.38e+06 M⁻¹ s⁻¹.

Usually Kd stands for the constant that tells how readily two partners part at equilibrium. For orientation: koff means a measure of how fast the partners let go of each other. A high value points to fast dissociation. As usually defined, the kon is the rate constant with which the complex forms. Low values mean slower complex formation, high ones faster complex formation.
